Source: US9518268B2, “Drought tolerant transgenic plants and method of making same” (PURDUE RESEARCH FOUNDATION, priority 2013, dated 2016)

T1: ABI2 (Arabidopsis thaliana, UniProt O04719)
T1 construct: GST (N, cleaved yes); made in house; host or cells: Escherichia coli BL21 (DE3.0)
T1 sequence (O04719 1-423): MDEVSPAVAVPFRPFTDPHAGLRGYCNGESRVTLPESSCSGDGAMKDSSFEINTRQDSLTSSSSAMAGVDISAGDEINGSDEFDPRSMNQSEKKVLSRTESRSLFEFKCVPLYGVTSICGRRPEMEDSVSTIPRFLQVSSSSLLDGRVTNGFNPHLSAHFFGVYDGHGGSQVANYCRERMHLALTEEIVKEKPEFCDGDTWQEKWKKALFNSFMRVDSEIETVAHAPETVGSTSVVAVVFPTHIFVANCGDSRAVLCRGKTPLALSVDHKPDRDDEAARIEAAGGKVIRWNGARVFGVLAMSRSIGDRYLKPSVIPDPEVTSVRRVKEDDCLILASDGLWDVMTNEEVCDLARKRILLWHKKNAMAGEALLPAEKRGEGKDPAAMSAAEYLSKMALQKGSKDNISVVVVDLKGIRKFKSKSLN

T2: PP2CA (Arabidopsis thaliana, UniProt P49598)
T2 construct: GST (N, cleaved yes); made in house; host or cells: Escherichia coli BL21 (DE3.0)
T2 sequence (P49598 1-399): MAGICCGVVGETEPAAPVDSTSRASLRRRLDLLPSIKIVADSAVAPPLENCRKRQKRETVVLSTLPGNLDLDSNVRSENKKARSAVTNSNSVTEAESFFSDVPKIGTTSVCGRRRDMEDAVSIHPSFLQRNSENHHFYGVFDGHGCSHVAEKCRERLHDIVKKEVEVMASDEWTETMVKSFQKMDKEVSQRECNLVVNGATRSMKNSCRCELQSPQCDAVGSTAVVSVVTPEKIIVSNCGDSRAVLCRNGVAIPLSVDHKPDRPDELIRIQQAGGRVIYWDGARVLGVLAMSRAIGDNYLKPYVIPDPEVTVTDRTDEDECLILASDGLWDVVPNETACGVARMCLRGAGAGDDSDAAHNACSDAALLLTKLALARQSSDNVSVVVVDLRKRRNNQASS
T2 sequence (Q9SN51 1-164 partner): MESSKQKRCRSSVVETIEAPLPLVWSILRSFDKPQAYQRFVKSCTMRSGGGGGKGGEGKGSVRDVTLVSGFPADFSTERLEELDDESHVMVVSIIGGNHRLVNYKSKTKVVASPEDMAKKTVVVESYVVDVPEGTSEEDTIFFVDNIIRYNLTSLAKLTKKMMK

T3: ABI1 (Arabidopsis thaliana, UniProt P49597)
T3 construct: GST (N, cleaved yes); made in house; host or cells: Escherichia coli BL21 (DE3.0)
T3 sequence (P49597 1-434): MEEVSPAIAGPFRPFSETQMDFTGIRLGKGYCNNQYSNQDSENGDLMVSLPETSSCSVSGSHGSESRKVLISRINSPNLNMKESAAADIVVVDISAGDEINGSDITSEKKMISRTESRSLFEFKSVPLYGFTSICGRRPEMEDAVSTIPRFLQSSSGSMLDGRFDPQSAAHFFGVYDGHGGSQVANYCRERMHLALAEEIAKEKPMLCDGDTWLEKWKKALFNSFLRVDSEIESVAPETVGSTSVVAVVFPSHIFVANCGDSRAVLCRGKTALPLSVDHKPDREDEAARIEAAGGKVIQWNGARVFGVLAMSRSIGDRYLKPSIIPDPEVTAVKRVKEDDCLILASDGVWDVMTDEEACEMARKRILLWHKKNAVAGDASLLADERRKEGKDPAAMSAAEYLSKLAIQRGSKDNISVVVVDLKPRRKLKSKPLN


Assays:
Experiment in all cases: Phosphatase activity assay (pNPP) with purified PP2Cs and PYLs
[1] = system: ABI1; format: biochemical, Arabidopsis thaliana; conditions: in the presence of 10 μM ABA; ABI1 and PYLs 0.3 μM
Procedure: (§1) The inhibition by PYL13 is ABA-independent, whereas the inhibition by PYR1 and PYL2 is ABA-induced (FIG. 4B). […] The phosphatase activities of PP2CA, ABI1, and ABI2 were measured in the absence or presence of ABA (1.25 μM), and with or without PYLs. The concentration of PP2Cs and PYLs was 0.3 μM. The A405 value of reaction without PP2C was set as 0% and that of the reaction with PP2C but without ABA and PYLs was set as 100%. Error bars indicate s.e.m. (n=6 for PP2CA and ABI2, and n=3 for ABI1).
(§2) To test the functional significance of potential heterodimer formation between PYL13 and other PYLs, the abilities of PYL1 and PYL2 and the protein complexes PYL13-PYL1 and PYL13-PYL2 to inhibit the phosphatase activity of ABI1 were compared using purified recombinant proteins and the synthetic phosphatase substrate pNPP. […] The phosphatase activity of ABI1 was measured (using pNPP) in the absence or presence of 10 μM ABA, with or without PYLs, and with PYL13-PYL dimers. The concentration of ABI1 and PYLs was 0.3 μM. The A405 value of reaction without ABI1 was set as 0% and that of the reaction with ABI1 but without ABA and PYLs was set as 100%. Error bars indicate s.e.m. (n=6). In the presence of 10 μM ABA, ABI1 phosphatase activity was reduced to 67±6% by PYL1 but only to 88±8% by PYL13-PYL1. In the presence of 10 μM ABA, ABI1 phosphatase activity was reduced to 50±3% by PYL2 but only to 78±10% by PYL13-PYL2.
(§3) Phosphatase activity was measured using the colorimetric substrate p-nitrophenyl phosphate (pNPP, SIGMA). Reactions were performed in a reaction buffer containing 50 mM Tris-HCl, pH 7.5, 25 mM Mg(OAc)2, 2 mM MnCl2, 0.5 mM EGTA, 0.5% β-mercaptoethanol, and 0.5% BSA. ABA and PYLs were added as indicated. The concentration of PP2Cs and PYLs was 0.3 μM. Reactions were initiated by the addition of pNPP to a final concentration of 50 mM. The hydrolysis of pNPP was measured by following the absorbance at 405 nm (A405). Because His-PYL13 is difficult to purify, is prone to degradation, and rapidly loses activity, newly purified PYL13 was used for the phosphatase activity assay.

[2] = molecular target: T1, ABI2; format: biochemical; conditions: PP2Cs and PYLs 0.3 μM
Procedure: as §1, §3

[3] = molecular target: T2, PP2CA; format: biochemical; conditions: PP2Cs and PYLs 0.3 μM
Procedure: as §1, §3

[4] = molecular target: T3, ABI1; format: biochemical; conditions: PP2Cs and PYLs 0.3 μM
Procedure: as §1, §2, §3

Row | Molecule | ABI1 phosphatase activity reduced to [1] [%] | ABI2 phosphatase activity reduced to ([2]; with 1.25 μM ABA) [%] | ABI2 phosphatase activity reduced to ([2]; without ABA) [%] | PP2CA phosphatase activity reduced to ([3]; with 1.25 μM ABA) [%] | PP2CA phosphatase activity reduced to ([3]; without ABA, PP2C without ABA and PYLs = 100%) [%] | ABI1 phosphatase activity reduced to ([4]; with 1.25 μM ABA) [%] | ABI1 phosphatase activity reduced to ([4]; without ABA) [%]
1 | PYL2: Arabidopsis thaliana PYL family ABA receptor protein PYL2, AT2G26040 | 50±3 | – | – | – | – | – | –
2 | PYL13: Arabidopsis thaliana PYR/PYL/RCAR family protein PYL13, SEQ ID NO: 1 (protein, listed as Arabidopsis thaliana) MESSKQKRCRSSVVETIEAPLPLVWSILRSFDKPQAYQRFVKSCTMRSGGGGGKGGEGKGSVRDVTLVSGFPADFSTERLEELDDESHVMVVSIIGGNHRLVNYKSKTKVVASPEDMAKKTVVVESYVVDVPEGTSEEDTIFFVDNIIRYNLTSLAKLTKKMMK | – | 93±6 | 89±8 | 54±5 | 55±5 | 75±3 | 75±3
